Measured values from paper PMC7954794, “Protein context shapes the specificity of SH3 domain-mediated interactions in vivo” (Nature Communications, 2021).

System: PPIs identified as affected by the SH3 domain deletions
Experiment: Liquid DHFR-PCA low-throughput validation of PPIs affected by SH3 deletion (Fig. S1D-E)
Format: cell-based, Saccharomyces cerevisiae
Conditions: label = prey, liquid DHFR-PCA, prey _1 = lost, _2 = gained in screen
Summary of the method: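 Yeast diploids from DHFR-PCA mating grown 48 h in synthetic complete MSG medium pH 6.0 with NAT and HPH, normalized to 1 OD and diluted to 0.1 OD in liquid PCA selection medium. Growth followed by OD every 15 min for 72 h at 30 °C.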

B1: YLR332W_1 (protein, UniProt P36027 26-376, looked up)
Cell wall integrity sensor …: QFFVQSSSSNSSAVSTARSSVSRVSSSSSILSSSMVSSSSADSSSLTSSTSSRSLVSHTSSSTSIASISFTSFSFSSDSSTSSSSSASSDSSSSSSFSISSTSATSESSTSSTQTSTSSSSSLSSTPSSSSSPSTITSAPSTSSTPSTTAYNQGSTITSIINGKTILSNHYTTVTYTPSATADSSNKSKSSGLSKKNRNIVIGCVVGIGVPLILVILALIYMFCIQSSRTDFIDSDGKVVTAYRANKFTKWWYMLLGKKVSDEYHSDSPLGGSASSAGGLDLDEADDVMEQSSLFDVRIRDSDSVLPNANTADHNNTNSGGEPINSSVASNDIIEEKFYDEQGNELSPRNY
- Ratio (Deletedscore / WTscore) (bait CDC25): 0.4625
- Ratio (Deletedscore / WTscore) (bait NBP2): 0.9277

B2: YGR037C_1 (protein, UniProt P31787 1-87, looked up)
Acyl-CoA-binding protein: MVSQLFEEKAKAVNELPTKPSTDELLELYALYKQATVGDNDKEKPGIFNMKDRYKWEAWENLKGKSQEDAEKEYIALVDQLIAKYSS
- Ratio (Deletedscore / WTscore) (bait LSB1): 1.041

B3: YLR144C_1 (protein, UniProt Q12168 1-779, looked up)
Glucan …: MCYSRQAIPPPVPNRPGGTTNRGPPPLPPRANVQPPVCSSENSSKPRENRVAGESLRTPSSSNPLADSQVNSDNIFQSPVLSNLKAPPSVFNKVQHPVPKPNIDDQSVDPLETNKFYTNMLLDDNTQPIWTHPYSIWFSRDPELFGLAANHTLASQRVFDTTTNPPRFYFNPTNIKSFVFKAREFVSSNDIKLEFRDMKHMSMCLLMSLSSSQFIEFPLVQGMGFVTAIYHDLGFELRSAVGFRSLERISVNERYGKYNIQLENNRNWILYLTSPDYSFPQDFQISLLDSNTIISSHKINGLICQLSADSVPSIDMAAGCYPVYCDLSGQTVDEHFTNYRFNYTVAGYSQSGTTLMYALPHHKAAFTPEMQEREIASSLDSTVKGLMTGYLTNSFDMQVQVPQELGFEPVALSLNKKADYSQEKLSKIREAAVQEVQLSDPQQESNIDSMYFSGKILAKYAWILYVTHYILHDENLTKELLSKLTIAMERFISNQQVLPLNYDVSWKGIISSGSSSQDFGNSYYNDHHFHYSYHVITAAIISLVDSDLSGVTNNSWLENNRDWVECLIRDYSGVDNDDPYFPQFRSFDWFNGHSWAKGLFPSGDGKDEESTSEDVNSCYAIKLWGLVTGNSKLTDIANLQLGIMRNVFQSYFLYESNNTVQPKEFIGNKVSGILFENKIDHATYFGMEPQYIHMIHAIPITSASSWVRTPNFVKEEWEEKMQPIIDQVNDGWKGIIMLNMALLDPKFSYDFFSQPDFNRNFLDNGQSLTWSLAYSGAFS
- Ratio (Deletedscore / WTscore) (bait LSB1): 1.001
- Ratio (Deletedscore / WTscore) (bait LSB3): 0.9902
- Ratio (Deletedscore / WTscore) (bait PIN3): 0.9919

B4: YCR009C_1 (protein, UniProt P25343 1-265, looked up)
Reduced viability upon …: MSWEGFKKAINRAGHSVIIKNVDKTIDKEYDMEERRYKVLQRAGEALQKEAKGFLDSLRAVTASQTTIAEVISNLYDDSKYVAGGGYNVGNYYLQCVQDFDSETVKQLDGPLRETVLDPITKFSTYFKEIEEAIKKRDHKKQDFDAAKAKVRRLVDKPAKDASKLPRAEKELSLAKDIFENLNNQLKTELPQLVSLRVPYFDPSFEALIKIQLRFCTDGYTRLAQIQQYLDQQSRDDYANGLLDTKIEELLGQMTSLDICALGIK
- Ratio (Deletedscore / WTscore) (bait LSB1): 0.9386
- Ratio (Deletedscore / WTscore) (bait LSB3): 0.7612
- Ratio (Deletedscore / WTscore) (bait MYO3): 0.6894
- Ratio (Deletedscore / WTscore) (bait MYO5): 0.8072

B5: YNL229C_1 (protein, UniProt P23202 2-354, looked up)
Transcriptional regulator URE2: MNNNGNQVSNLSNALRQVNIGNRNSNTTTDQSNINFEFSTGVNNNNNNNSSSNNNNVQNNNSGRNGSQNNDNENNIKNTLEQHRQQQQAFSDMSHVEYSRITKFFQEQPLEGYTLFSHRSAPNGFKVAIVLSELGFHYNTIFLDFNLGEHRAPEFVSVNPNARVPALIDHGMDNLSIWESGAILLHLVNKYYKETGNPLLWSDDLADQSQINAWLFFQTSGHAPMIGQALHFRYFHSQKIASAVERYTDEVRRVYGVVEMALAERREALVMELDTENAAAYSAGTTPMSQSRFFDYPVWLVGDKLTIADLAFVPWNNVVDRIGINIKIEFPEVYKWTKHMMRRPAVIKALRGE
- Ratio (Deletedscore / WTscore) (bait LSB1): 1.043

B6: YHR016C_1 (protein, UniProt P32793 1-468, looked up)
Protein YSC84: MGINNPIPRSLKSETKKAAKVLRSFVKPNQVFGADQVIPPYVLKRAKGLAIITVLKAGFLFSGRAGSGVIVARLKDGTWSAPSAIAMAGAGAGGMVGVELTDFVFILNSEEAVRSFSEFGTITLGGNVSVSAGPLGRSAEAAASASTGGVSAVFAYSKSKGLFAGVSVEGSAILERREANRKFYGDNCTSKMILSGRVKVPPAADPLLRILESRAFNFTRHDHDDNASGDDFYDDGQYSDNTSHYYDDIPDSFDSTDESSTRPNTRSSRRRGMSLGSRSRYDDDYDDDGYGRGRGYGDFDSEDEDYDYGRSPNRNSSRNRGPQIDRGTKPRANTRWEDDLYDRDTEYSRPNHSGRDYDNTRGNRRGYGRERGYSLGHGPTHPSNMSNVDDLSHKMSKTGLGNESTATNSATPTAVALYNFAGEQPGDLAFKKGDVITILKKSDSQNDWWTGRTNGKEGIFPANYVRVS
- Ratio (Deletedscore / WTscore) (bait HOF1): 0.9486
- Ratio (Deletedscore / WTscore) (bait MYO5): 0.6586
- Ratio (Deletedscore / WTscore) (bait RVS167): 0.5834

B7: YNL084C_1 (protein, UniProt P39013 1-349, looked up)
Actin cytoskeleton-regulatory …: MPKLEQFEIKKYWQIFSGLKPIENKVNHDQVLPILYNSKLDSSVLNKIWFLADIDDDDNLDFEEFVICMRLIFDMVNKNISSVPDELPDWLIPGSKVNLIKERKKRKQIENADLPPKKEIKVDWYMSPDDLNQYEKIYNSCAKLTDGTITFNELSTKLSTKFFNISKTDLNKVWSLINPQNLPSIDRDPTFYFIHCLRQRNDLGAEIPASLPNSLAEVCNKKQLSYDLRSSQPPTKRKEEANEVDNLRDNGQNSSSDSSGSNVLSNEDSIKQKYASLTDDQVANMREQLEGLLNYKKSEKTQGGSKLSKRINIRSITDDLDNIEQQVEVLENYLNNKRHELQALQAEIN
- Ratio (Deletedscore / WTscore) (bait LSB1): 0.7759
- Ratio (Deletedscore / WTscore) (bait LSB3): 0.8689
- Ratio (Deletedscore / WTscore) (bait MYO3): 0.5035
- Ratio (Deletedscore / WTscore) (bait MYO5): 0.7027

B8: YKL129C_1 (protein, UniProt P36006 1-1272, looked up)
Myosin-3: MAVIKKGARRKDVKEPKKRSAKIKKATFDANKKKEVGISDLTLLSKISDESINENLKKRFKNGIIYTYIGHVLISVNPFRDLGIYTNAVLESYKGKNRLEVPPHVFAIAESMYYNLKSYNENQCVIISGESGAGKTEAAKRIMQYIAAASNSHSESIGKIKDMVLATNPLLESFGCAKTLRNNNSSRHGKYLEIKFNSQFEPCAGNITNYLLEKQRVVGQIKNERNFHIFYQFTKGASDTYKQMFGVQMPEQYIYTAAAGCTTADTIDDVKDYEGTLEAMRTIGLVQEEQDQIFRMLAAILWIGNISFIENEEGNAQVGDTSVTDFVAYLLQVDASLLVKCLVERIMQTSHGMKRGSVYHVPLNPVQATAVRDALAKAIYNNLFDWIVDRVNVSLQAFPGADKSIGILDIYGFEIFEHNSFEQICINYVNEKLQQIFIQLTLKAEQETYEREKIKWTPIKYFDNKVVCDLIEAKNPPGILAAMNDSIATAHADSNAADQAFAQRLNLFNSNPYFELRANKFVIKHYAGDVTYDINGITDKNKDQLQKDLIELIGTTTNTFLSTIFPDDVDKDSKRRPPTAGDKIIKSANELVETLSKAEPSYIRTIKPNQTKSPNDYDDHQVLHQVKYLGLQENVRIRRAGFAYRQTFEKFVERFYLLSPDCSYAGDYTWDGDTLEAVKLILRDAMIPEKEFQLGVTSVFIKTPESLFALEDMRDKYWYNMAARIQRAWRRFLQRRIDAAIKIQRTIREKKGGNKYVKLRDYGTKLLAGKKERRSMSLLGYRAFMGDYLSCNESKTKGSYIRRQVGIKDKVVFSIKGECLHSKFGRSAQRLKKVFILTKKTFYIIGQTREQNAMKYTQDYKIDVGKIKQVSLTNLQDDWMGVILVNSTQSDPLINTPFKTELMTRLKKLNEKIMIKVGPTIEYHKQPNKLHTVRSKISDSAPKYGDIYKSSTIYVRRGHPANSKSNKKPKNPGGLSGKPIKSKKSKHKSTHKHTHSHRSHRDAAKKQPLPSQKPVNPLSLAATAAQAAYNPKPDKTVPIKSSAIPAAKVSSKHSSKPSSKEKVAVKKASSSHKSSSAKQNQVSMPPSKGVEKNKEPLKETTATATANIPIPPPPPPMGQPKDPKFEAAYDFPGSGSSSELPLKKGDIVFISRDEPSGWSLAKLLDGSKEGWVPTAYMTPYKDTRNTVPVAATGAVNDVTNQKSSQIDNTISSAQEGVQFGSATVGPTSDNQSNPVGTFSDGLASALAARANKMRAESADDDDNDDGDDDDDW
- Ratio (Deletedscore / WTscore) (bait BZZ1-1): 0.69
- Ratio (Deletedscore / WTscore) (bait PIN3): 0.7986

B9: YLR258W_2 (protein, UniProt P27472 1-705, looked up)
Glycogen [starch] synthase …: MSRDLQNHLLFETATEVANRVGGIYSVLKSKAPITVAQYKDHYHLIGPLNKATYQNEVDILDWKKPEAFSDEMRPVQHALQTMESRGVHFVYGRWLIEGAPKVILFDLDSVRGYSNEWKGDLWSLVGIPSPENDFETNDAILLGYTVAWFLGEVAHLDSQHAIVAHFHEWLAGVALPLCRKRRIDVVTIFTTHATLLGRYLCASGSFDFYNCLESVDVDHEAGRFGIYHRYCIERAAAHSADVFTTVSQITAFEAEHLLKRKPDGILPNGLNVIKFQAFHEFQNLHALKKEKINDFVRGHFHGCFDFDLDNTLYFFIAGRYEYKNKGADMFIEALARLNYRLKVSGSKKTVVAFIVMPAKNNSFTVEALKGQAEVRALENTVHEVTTSIGKRIFDHAIRYPHNGLTTELPTDLGELLKSSDKVMLKRRILALRRPEGQLPPIVTHNMVDDANDLILNKIRQVQLFNSPSDRVKMIFHPEFLNANNPILGLDYDEFVRGCHLGVFPSYYEPWGYTPAECTVMGVPSITTNVSGFGAYMEDLIETNQAKDYGIYIVDRRFKAPDESVEQLVDYMEEFVKKTRRQRINQRNRTERLSDLLDWKRMGLEYVKARQLALRRGYPDQFRELVGEELNDSNMDALAGGKKLKVARPLSVPGSPRDLRSNSTVYMTPGDLGTLQEVNNADDYFSLGVNPAADDDDDGPYADDS
- Ratio (Deletedscore / WTscore) (bait ABP1): 1.221
